The results in this text go back to patent US20140314790A1 (ALBERT EINSTEIN COLLEGE OF MEDICINE OF YESHIVA UNIVERSITY, published 2014).

For assay [1], the target named is T1, β-CTF (C-terminal fragment of APP made by β-secretase cleavage) (UniProt P05067 672-770).
T1 construct: domain: β-CTF; also called APP-CTF
Nature of the assay: α-Flag IP from HeLa/APP cells incubated with N3-2A-F, Western blot for APP-CTFs.

For assay [2], the target named is T2, amyloid precursor protein (APP), transfected into HeLa or HEK293 cells (UniProt P05067 18-770).
T2 construct: whole, on cells; Scheinfeld et al, 2002)'; also called mature APP; HeLa-APP
Nature of the assay: α-Flag IP from HeLa/APP cells incubated with Flagged peptide, Western blot for APP.

T1 sequence (P05067 672-770 limits assumed): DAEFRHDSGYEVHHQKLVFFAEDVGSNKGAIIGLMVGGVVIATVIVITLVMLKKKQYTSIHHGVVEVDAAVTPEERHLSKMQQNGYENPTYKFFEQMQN
T2 sequence (P05067 18-770): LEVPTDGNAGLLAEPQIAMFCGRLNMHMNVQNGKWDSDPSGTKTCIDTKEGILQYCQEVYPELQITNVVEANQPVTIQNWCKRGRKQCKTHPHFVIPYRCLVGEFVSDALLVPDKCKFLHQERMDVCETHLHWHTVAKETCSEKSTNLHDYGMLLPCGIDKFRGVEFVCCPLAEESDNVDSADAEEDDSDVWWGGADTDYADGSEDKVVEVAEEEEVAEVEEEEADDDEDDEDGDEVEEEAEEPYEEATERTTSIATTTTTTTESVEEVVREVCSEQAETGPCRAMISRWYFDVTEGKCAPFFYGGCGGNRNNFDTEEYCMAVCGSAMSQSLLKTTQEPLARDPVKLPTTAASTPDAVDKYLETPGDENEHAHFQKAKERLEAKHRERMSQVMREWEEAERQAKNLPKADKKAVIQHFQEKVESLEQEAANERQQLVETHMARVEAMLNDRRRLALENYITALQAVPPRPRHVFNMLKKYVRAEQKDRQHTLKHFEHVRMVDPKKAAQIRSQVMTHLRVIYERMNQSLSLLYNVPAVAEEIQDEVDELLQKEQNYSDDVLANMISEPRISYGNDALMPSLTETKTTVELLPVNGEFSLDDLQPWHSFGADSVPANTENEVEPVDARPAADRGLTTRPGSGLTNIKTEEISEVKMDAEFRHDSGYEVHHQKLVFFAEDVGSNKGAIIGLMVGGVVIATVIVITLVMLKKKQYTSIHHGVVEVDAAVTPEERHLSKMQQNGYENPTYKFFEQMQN

On to DAVYYCGLKY (peptide, not shown: small tags and cut ends, also called BRI2-derived peptide) [N3-2A fused to a C-terminal Flag epitope (N3-2A-F)], for which the binding result in assay [1] is “no binding (tested: 40 µM)”. Consider DDVAYCGLKY (peptide, not shown: small tags and cut ends) [N3-4A-F (single amino acid N3 mutant N3-4A with Flag epitope)], for which the binding result in assay [2] is recorded as “no binding (tested: 40 µM)”.
